# Literature values as cited in article PMC8777194.
# Target: Leader protein L L (Encephalomyocarditis virus) (UniProt P03304)
substance,measurement,value
2A protein 2A (from UniProt P03304),Kd,1500 nM
